Results as given in US20260167699A1 (Chugai, published 2026).
Where a chain is given by its changes, count along the chain named.

T1: FcγRIIa(R) (human, UniProt P12318 34-217)
T1 construct: extracellular domain; also called FcγRIIa R type; 2aR
T1 sequence: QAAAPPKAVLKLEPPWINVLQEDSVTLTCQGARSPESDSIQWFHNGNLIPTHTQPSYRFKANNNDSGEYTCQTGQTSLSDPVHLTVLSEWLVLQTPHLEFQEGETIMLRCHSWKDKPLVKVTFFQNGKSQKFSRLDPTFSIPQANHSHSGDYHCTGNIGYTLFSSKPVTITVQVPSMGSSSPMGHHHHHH

T2: FcγRIIa(H) (human, UniProt P12318 34-217)
T2 construct: extracellular domain; also called FcγRIIa H type; 2aH
T2 sequence: T1 sequence with R134H

T3: FcγRIIb (human, UniProt P31994 43-217)
T3 construct: extracellular domain; also called 2b
T3 sequence: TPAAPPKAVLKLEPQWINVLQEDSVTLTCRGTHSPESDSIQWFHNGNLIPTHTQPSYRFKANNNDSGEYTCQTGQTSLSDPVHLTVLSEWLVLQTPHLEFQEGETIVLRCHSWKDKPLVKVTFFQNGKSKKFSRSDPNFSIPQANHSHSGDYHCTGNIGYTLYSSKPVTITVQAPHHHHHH

B1: GpH7-A5/GpH7-B3 variant H268_03V/GpL16-k0 (antibody, human IgG1, kappa)
heavy 1: not shown
heavy 2: not shown
light: DIVMTQSPLSLPVTPGEPASISCQASESLVHSNRNTYLHWYLQKPGQSPQLLIYKVSNRFSGVPDRFSGSGSGTDFTLKISRVEAEDVGVYYCSQNTHVPPTFGQGTKVEIERTVAAPSVFIFPPSDEQLKSGTASVVCLLNNFYPREAKVQWKVDNALQSGNSQESVTEQDSKDSTYSLSSTLTLSKADYEKHKVYACEVTHQGLSSPVTKSFNRGEC
notes: heterodimerized IgG1, one H chain mutated; also called He Ab
B2: GpH7-A5/GpH7-B3 variant H268_14T/GpL16-k0 (antibody, human IgG1, kappa)
heavy 1: not shown
heavy 2: not shown
light: B1 light
notes: as for B1
B3: GpH7-A5/GpH7-B3 variant H268_08L/GpL16-k0 (antibody, human IgG1, kappa)
heavy 1: not shown
heavy 2: not shown
light: B1 light
notes: as for B1
B4: GpH7-A5/GpH7-B3 variant H268_09D/GpL16-k0 (antibody, human IgG1, kappa)
heavy 1: not shown
heavy 2: not shown
light: B1 light
notes: as for B1
B5: GpH7-A5/GpH7-B3 variant H268_06M/GpL16-k0 (antibody, human IgG1, kappa)
heavy 1: not shown
heavy 2: not shown
light: B1 light
notes: as for B1
B6: GpH7-A5/GpH7-B3 variant H268_20W/GpL16-k0 (antibody, human IgG1, kappa)
heavy 1: not shown
heavy 2: not shown
light: B1 light
notes: as for B1
B7: GpH7-A5/GpH7-B3 variant H268_19Q/GpL16-k0 (antibody, human IgG1, kappa)
heavy 1: not shown
heavy 2: not shown
light: B1 light
notes: as for B1
B8: GpH7-A5/GpH7-B3 variant H268_04F/GpL16-k0 (antibody, human IgG1, kappa)
heavy 1: not shown
heavy 2: not shown
light: B1 light
notes: as for B1
B9: GpH7-A5/GpH7-B3 variant H268_15Y/GpL16-k0 (antibody, human IgG1, kappa)
heavy 1: not shown
heavy 2: not shown
light: B1 light
notes: as for B1
B10: GpH7-A5/GpH7-B3 variant H268_13S/GpL16-k0 (antibody, human IgG1, kappa)
heavy 1: not shown
heavy 2: not shown
light: B1 light
notes: as for B1
B11: GpH7-A5/GpH7-B3 variant H268_12R/GpL16-k0 (antibody, human IgG1, kappa)
heavy 1: not shown
heavy 2: not shown
light: B1 light
notes: as for B1
B12: GpH7-A5/GpH7-B3 variant H268_18N/GpL16-k0 (antibody, human IgG1, kappa)
heavy 1: not shown
heavy 2: not shown
light: B1 light
notes: as for B1
B13: GpH7-A5/GpH7-B3 variant H268_11K/GpL16-k0 (antibody, human IgG1, kappa)
heavy 1: not shown
heavy 2: not shown
light: B1 light
notes: as for B1
B14: GpH7-A5/GpH7-B3 variant H268_10E/GpL16-k0 (antibody, human IgG1, kappa)
heavy 1: not shown
heavy 2: not shown
light: B1 light
notes: as for B1
B15: GpH7-A5/GpH7-B3 variant H268_07I/GpL16-k0 (antibody, human IgG1, kappa)
heavy 1: not shown
heavy 2: not shown
light: B1 light
notes: as for B1

The binders below were run against T4, FcγRIa (human, UniProt P12314 16-292) (assay: SPR (Biacore), binding relative to GpH7-A5/GpH7-B3/GpL16-k0 x100;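 note: surface plasmon resonance at 25 °C, antibody captured on a sensor chip and soluble FcγR flowed over it in HBS-EP+ running buffer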).
T4 construct: extracellular domain; also called 1a
T4 sequence (P12314 other isoform, or with tags, fused parts or gaps): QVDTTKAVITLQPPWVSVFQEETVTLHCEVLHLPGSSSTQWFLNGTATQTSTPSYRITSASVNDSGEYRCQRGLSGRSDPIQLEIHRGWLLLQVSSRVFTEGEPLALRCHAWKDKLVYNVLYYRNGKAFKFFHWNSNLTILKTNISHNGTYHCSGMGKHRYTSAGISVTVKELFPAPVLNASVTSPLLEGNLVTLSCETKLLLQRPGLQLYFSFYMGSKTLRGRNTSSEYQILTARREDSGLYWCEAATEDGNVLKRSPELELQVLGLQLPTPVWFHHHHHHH

Row | Binder | He/Con 1a [%]
1 | B1 | 103
2 | B2 | 108
3 | B3 | 104
4 | B4 | 106
5 | B5 | 101
6 | B6 | 103
7 | B7 | 104
8 | B8 | 103
9 | B9 | 104
10 | B10 | 106
11 | B11 | 103
12 | B12 | 104
13 | B13 | 102
14 | B14 | 107
15 | B15 | 104

Each binder was assayed against T1, FcγRIIa(R) in the same assay as above.

Row | Binder | He/Con 2aR [%]
16 | B1 | 117
17 | B2 | 100
18 | B3 | 91.4
19 | B4 | 161
20 | B5 | 67.2
21 | B6 | 122
22 | B7 | 128
23 | B8 | 105
24 | B9 | 118
25 | B10 | 137
26 | B11 | 113
27 | B12 | 138
28 | B13 | 108
29 | B14 | 159
30 | B15 | 102

These binders were tested against T2, FcγRIIa(H) in the same assay as above.

Row | Binder | He/Con 2aH [%]
31 | B1 | 100
32 | B2 | 93.5
33 | B3 | 85.9
34 | B4 | 134
35 | B5 | 85.8
36 | B6 | 96.9
37 | B7 | 104
38 | B8 | 112
39 | B9 | 113
40 | B10 | 114
41 | B11 | 90.9
42 | B12 | 113
43 | B13 | 89.8
44 | B14 | 126
45 | B15 | 91.2

Each binder was assayed against T3, FcγRIIb in the same assay as above.

Row | Binder | He/Con 2b [%]
46 | B1 | 120
47 | B2 | 90.3
48 | B3 | 71.2
49 | B4 | 251
50 | B5 | 69
51 | B6 | 117
52 | B7 | 140
53 | B8 | 94.2
54 | B9 | 112
55 | B10 | 168
56 | B11 | 94.3
57 | B12 | 164
58 | B13 | 87.2
59 | B14 | 242
60 | B15 | 93.4
